The target in assay [1] is T1, CD39 mutant 5 (human, UniProt P49961 1-510).
T1 construct: Expressed on Hek-293T cells; also called M5
T1 chain: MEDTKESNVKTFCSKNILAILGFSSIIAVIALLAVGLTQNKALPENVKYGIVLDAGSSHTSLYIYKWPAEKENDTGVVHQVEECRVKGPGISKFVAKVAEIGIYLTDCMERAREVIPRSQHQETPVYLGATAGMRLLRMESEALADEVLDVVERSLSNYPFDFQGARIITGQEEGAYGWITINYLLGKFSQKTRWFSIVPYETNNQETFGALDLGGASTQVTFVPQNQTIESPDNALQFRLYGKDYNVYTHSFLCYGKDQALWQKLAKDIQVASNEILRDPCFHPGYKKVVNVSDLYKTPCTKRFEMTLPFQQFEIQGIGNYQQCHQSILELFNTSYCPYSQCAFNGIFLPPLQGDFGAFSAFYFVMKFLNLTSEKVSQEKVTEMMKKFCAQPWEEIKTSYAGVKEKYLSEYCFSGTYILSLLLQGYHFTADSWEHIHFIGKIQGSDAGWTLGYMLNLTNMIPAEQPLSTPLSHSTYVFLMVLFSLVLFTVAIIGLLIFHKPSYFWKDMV
The assay is described as follows: flow cytometry, Hek-293T cells transfected with CD39 mutant 5 (panel M5), Comp-Alexa Fluor 647-A. On the procedure:
(§1) Mutants were transfected in Hek-293T cells, as shown in the table 1, using numbering of SEQ ID NO: 2. […] Mutant 19 includes substitutions at residues R138, M139 and E142.
(§2) Mutants were transfected in Hek-293T cells, as shown in the table 1, using numbering of SEQ ID NO: 2. Dose-ranges of test antibodies (10-2.5-0.625-0.1563-0.0391-0.0098-0.0024-0.0006 μg/ml) are tested on the 20 generated mutants by flow cytometry.
On the technique in general: In flow cytometry, cells or beads pass a laser one at a time.

Assay [2] addresses T2, CD39 mutant 19 (human, UniProt P49961 1-510).
T2 construct: Expressed on Hek-293T cells; also called M19
T2 chain: T1 chain with A96Q, A99N, R138A, M139A, E142K, A143E, E147R
The assay is described as follows: flow cytometry, Hek-293T cells transfected with CD39 mutant 19 (panel M19), Comp-Alexa Fluor 647-A.

Assay [3] addresses T3, CD39 mutant 15 (human, UniProt P49961 1-510).
T3 construct: Expressed on Hek-293T cells; also called M15
T3 chain: T1 chain with K87A, A96Q, A99N, E100A, D107A, A143E, E147R
The experiment in a line: flow cytometry, Hek-293T cells transfected with CD39 mutant 15 (panel M15); antibody concentration not shown.

Assay [4] concerns the target T3, CD39 mutant 15. The experiment in a line: flow cytometry, Hek-293T cells transfected with CD39 mutant 15 (panel M15), table under the panel; unstained (US) 8,98; antibody concentration not shown. On the procedure:
as §1, §2

Assay [5] concerns the target T1, CD39 mutant 5. The experiment in a line: flow cytometry, Hek-293T cells transfected with CD39 mutant 5 (panel M5); antibody concentration not shown.
Assay [6] deals with T2, CD39 mutant 19. The experiment in a line: flow cytometry, Hek-293T cells transfected with CD39 mutant 19 (panel M19); antibody concentration not shown. The method, then:
as §1, §2

The target in assay [7] is T1, CD39 mutant 5. The assay is described as follows: flow cytometry, Hek-293T cells expressing mutant 5.
The target of assay [8] is T4, CD39 mutant 11 (human, UniProt P49961 1-510).
T4 construct: Expressed on Hek-293T cells
T4 sequence: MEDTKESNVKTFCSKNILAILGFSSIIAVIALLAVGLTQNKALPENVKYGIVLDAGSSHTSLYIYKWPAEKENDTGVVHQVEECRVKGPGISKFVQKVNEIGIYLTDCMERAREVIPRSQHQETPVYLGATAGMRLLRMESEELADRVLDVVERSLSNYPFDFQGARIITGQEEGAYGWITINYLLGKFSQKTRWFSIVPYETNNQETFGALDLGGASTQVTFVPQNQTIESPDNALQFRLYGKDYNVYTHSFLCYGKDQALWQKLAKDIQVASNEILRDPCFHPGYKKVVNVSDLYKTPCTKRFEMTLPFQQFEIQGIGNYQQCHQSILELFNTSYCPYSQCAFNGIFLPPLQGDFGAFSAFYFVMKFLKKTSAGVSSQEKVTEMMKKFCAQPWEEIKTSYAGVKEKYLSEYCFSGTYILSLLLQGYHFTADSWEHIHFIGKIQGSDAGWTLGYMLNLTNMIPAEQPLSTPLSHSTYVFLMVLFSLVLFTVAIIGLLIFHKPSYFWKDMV
The assay is described as follows: flow cytometry, Hek-293T cells expressing mutant 11.

For assay [9], the target named is T3, CD39 mutant 15. The assay is described as follows: flow cytometry, Hek-293T cells expressing mutant 15.
Assay [10] addresses T2, CD39 mutant 19. The experiment in a line: flow cytometry, Hek-293T cells expressing mutant 19.

Substitutions are numbered along the chain they refer to.

B1: antibody I-396 (antibody, V domains shown)
VH: EVQLQQSGAELVKPGASVKLSCIVSGFNIKDTYINWVKQRPEQGLEWIGRIDPANGNTKYDPKFQGKATMTSDTSSNTAYLHLSSLTSDDSAVYYCARWGYDDEEADYFDSWGQGTTLTVSS
VL: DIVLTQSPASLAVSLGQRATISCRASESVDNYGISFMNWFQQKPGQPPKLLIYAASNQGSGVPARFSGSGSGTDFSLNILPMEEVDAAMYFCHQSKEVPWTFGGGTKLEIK
notes: Hybridoma antibody purified with protein A
Regarding B1, the results for the binding result in assay [1], in [2] and in [3] were “binds”, “binds” and “no binding”, respectively. The “Median : Comp-Alexa Fluor 647-A” value in [4] came out at 35.9.

B2: antibody I-395 (antibody, V domains shown)
VH: EVQLQQSGPELVKPGASVRMSCKASGYTFTDYNMHWVKKNHGKGLEWIGYINPNNGGTTYNQKFKGKATLTVNTSSKTAYMELRSLTSEDSAVYYCTRGGTRFASWGQGTLVTVSA
VL: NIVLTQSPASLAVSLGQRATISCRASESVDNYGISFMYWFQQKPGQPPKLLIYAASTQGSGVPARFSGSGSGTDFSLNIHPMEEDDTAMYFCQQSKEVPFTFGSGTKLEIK
notes: as for B1
In the case of B2, the binding result in assay [5] and in [6] was “no binding” each time. Also, in assay [4], the “Median : Comp-Alexa Fluor 647-A” value came to 5750.

B3: antibody I-399 (antibody, V domains shown)
VH: PVQLQQPGAEVVMPGASVKLSCKASGYTFTSFWMNWMRQRPGQGLEWIGEIDPSDFYTNSNQRFKGKATLTVDKSSSTAYMQLSSLTSEDSAVYFCARGDFGWYFDVWGTGTSVTVSS
VL: EIVLTQSPTTMTSSPGEKITFTCSASSSINSNYLHWYQQKPGFSPKLLIYRTSNLASGVPTRFSGSGSGTSYSLTIGTMEAEDVATYYCQQGSSLPRTFGGGTKLEIK
notes: as for B1
As for B3, the binding result is “binds” in assay [7], “no binding (tested: dose range up to 10 µg/ml)” in assay [8], “binds” in [9] and “binds” in assay [10].

(Values after patent publication US20190218308A1 (INNATE PHARMA, published 2019).)
